What was measured:
[1] = molecular target: T1, human LILRB2 expressed on cells (human, UniProt Q8N423 22-597); assay: flow cytometry, binding to hLILRB2 CHOs
T1 construct: CHO-s cells over-expressing full-length human LILRB2, or primary human macrophages and dendritic cells; also called hLILRB2-CHO-s; hLILRB2+ CHO-s

[2] = molecular target: T2, human LILRA5 (human, UniProt A6NI73 42-299); assay: flow cytometry, LILRA5 CHOs
T2 construct: Over-expressed on CHO-s cells; also called hLILRA5
Procedure: (§1) To test for specificity to hLILRB2 and not towards any of the ten LILR family members, a multiplexed cell-based barcoding approach was used by staining cells with Far Red and/or Violet Cell Trace dyes (Thermo Scientific) according to manufacturer's protocol or left unstained. In brief, cells were washed twice with 1×DPBS and then incubated with diluted dye in 1×DPBS for 20 minutes at 37° C., mixing gently every 5-10 minutes. Dye labeling was quenched by adding equal volume of 100% HI-FBS (Sigma) to the cells. Note that LILRB1, LILRB2, LILRB3, LILRB4, and LILRB5 cell lines are also GFP-positive, while LILRA1, LILRA2, LILRA3, LILRA4, LILRA5, and LILRA6 cell lines are GFP-negative. The cells were then washed twice in 1×DPBS and then all 11 cell lines were combined per well in a 96-well round bottom tissue-culture treated plate. At least 25×10³ cells of each cell-line were plated per well. Cells were then re-suspended in primary antibody (anti-LILRB2 mAbs or control) prepared in FACS buffer (1×DPBS containing 2% HI-FBS (Sigma)+0.05% Sodium Azide). After incubation at 4° C. for 30 minutes, cells were washed twice with 1×DPBS and re-suspended in anti-human IgG-PE (BioLegend) diluted 1:200 in FACS buffer. Following a 30 minute incubation at 4° C., protected from light, cells were washed in 1×DPBS and re-suspended in fix buffer (1.5% paraformaldehyde diluted in 1×DPBS). Samples were analyzed using the Celesta flow cytometer analyzer (BD Biosciences). Geometric mean fluorescence intensity (gMFI) of PE was determined for each antibody across each cell line. Background MFI was detected with isotype control and relative binding of antibodies tested was measured as a fold over isotype.

[3] = molecular target: human LILRB2-His (human, UniProt Q8N423 22-460); assay: SPR, Sierra Sensors MASS-2; antibody captured on anti-human Fc, LILRB2-His 65 to 0.27 nM, 1:1 Langmuir fit
Procedure: Using a Mass-2 (Sierra Sensors) high capacity amine chip preimmobilized with AffiniPure Goat Anti-Human IgG, Fcγ Fragment Specific antibody, humanized antibodies were captured on the anti-human surface and then binding to human LILRB2-His was measured by flowing six different concentrations from 65 to 0.27 nM of the analyte over the antibody surface. The anti-LILRB2 surface was removed (10 mM Glycine, pH 2.0) and recaptured between all concentrations or buffer only cycles. The data was analyzed using the Sierra Analyzer software (version 3.1.14). All curves were double subtracted and fit to a 1:1 Langmuir Fit.

[4] = molecular target: T1, human LILRB2 expressed on cells; assay: HLA-A2:LILRB2 blocking; HLA-A2 tetramer on primary human macrophages, flow cytometry
Procedure: (§2) The potency of select humanized variants in blocking the interaction of HLA-G and HLA-A2 with primary human macrophage-expressed hLILRB2 were assessed. Primary human monocytes were differentiated into macrophages in the presence of M-CSF. After seven days of differentiation, 1×10⁵ HMDMs were plated in 96-well round-bottom tissue culture-treated plate and washed twice with 1×DPBS (Gibco) and then incubated with 50 μL primary antibody (anti-LILRB2 mAbs or control) prepared in FACS buffer (1×DPBS containing 2% HI-FBS (Sigma)+0.05% Sodium Azide). After incubation with mAbs for 30 minutes at 4° C., cells were washed twice in FACS buffer and then resuspended in 50 μL of FACS buffer containing 5 μg/mL APC-conjugated HLA-G or HLA-A2 tetramer (Fred Hutch). Cells were incubated protected from light for 30-60 minutes at 4° C. After incubation with tetramer, cells were washed in FACS buffer and re-suspended in fix buffer (1.5% paraformaldehyde diluted in 1×DPBS). Samples were analyzed using the Celesta flow cytometer analyzer (BD Biosciences).

[5] = molecular target: T1, human LILRB2 expressed on cells; assay: cell-based or functional assay
[6] = molecular target: T1, human LILRB2 expressed on cells; assay: flow cytometry, LILRB2 CHOs
[7] = molecular target: T3, human LILRA1 (human, UniProt O75019 17-489); assay: flow cytometry, LILRA1 CHOs
T3 construct: Over-expressed on CHO-s cells; also called hLILRA1
Procedure: as §1

[8] = molecular target: T4, human LILRB3 (human, UniProt O75022 24-631); assay: flow cytometry, LILRB3 CHOs
T4 construct: Over-expressed on CHO-s cells; also called hLILRB3
Procedure: as §1

[9] = molecular target: T5, human LILRA6 (human, UniProt Q6PI73 24-481); assay: flow cytometry, LILRA6 CHOs
T5 construct: Over-expressed on CHO-s cells; also called hLILRA6
Procedure: as §1

[10] = molecular target: T6, human LILRA2 (human, UniProt Q8N149 24-483); assay: flow cytometry, LILRA2 CHOs
T6 construct: Over-expressed on CHO-s cells; also called hLILRA2
Procedure: as §1

[11] = molecular target: T7, human LILRA4 (human, UniProt P59901 24-499); assay: flow cytometry, LILRA4 CHOs
T7 construct: Over-expressed on CHO-s cells; also called hLILRA4
Procedure: as §1

[12] = molecular target: T8, human LILRB1 (human, UniProt Q8NHL6 24-650); assay: flow cytometry, LILRB1 CHOs
T8 construct: Over-expressed on CHO-s cells; also called hLILRB1
Procedure: as §1

[13] = molecular target: T9, human LILRA3 (human, UniProt Q8N6C8 24-439); assay: flow cytometry, LILRA3 CHOs
T9 construct: Over-expressed on CHO-s cells; also called hLILRA3
Procedure: as §1

[14] = molecular target: T10, human LILRB4 (human, UniProt Q8NHJ6 22-448); assay: flow cytometry, LILRB4 CHOs
T10 construct: Over-expressed on CHO-s cells; also called hLILRB4
Procedure: as §1

[15] = molecular target: T1, human LILRB2 expressed on cells; assay: HLA-G:LILRB2 blocking; HLA-G tetramer on primary human macrophages, flow cytometry
Procedure: as §2

[16] = molecular target: T11, human LILRB5 (human, UniProt O75023 24-590); assay: flow cytometry, LILRB5 CHOs
T11 construct: Over-expressed on CHO-s cells; also called hLILRB5
Procedure: as §1

T3 sequence (O75019 17-489 limits assumed): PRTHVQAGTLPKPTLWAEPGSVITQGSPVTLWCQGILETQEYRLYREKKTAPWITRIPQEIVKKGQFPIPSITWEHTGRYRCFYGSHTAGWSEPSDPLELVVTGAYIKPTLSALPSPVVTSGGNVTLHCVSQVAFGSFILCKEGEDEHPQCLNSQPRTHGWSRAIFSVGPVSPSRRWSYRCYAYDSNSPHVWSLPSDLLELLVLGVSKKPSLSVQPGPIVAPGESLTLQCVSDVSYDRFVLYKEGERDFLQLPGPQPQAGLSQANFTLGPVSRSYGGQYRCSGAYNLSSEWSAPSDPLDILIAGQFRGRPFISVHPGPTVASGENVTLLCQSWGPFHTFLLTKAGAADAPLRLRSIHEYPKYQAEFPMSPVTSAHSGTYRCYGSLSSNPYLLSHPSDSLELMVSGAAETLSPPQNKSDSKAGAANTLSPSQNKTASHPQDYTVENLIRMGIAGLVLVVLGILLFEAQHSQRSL
T8 sequence (Q8NHL6 24-650 limits assumed): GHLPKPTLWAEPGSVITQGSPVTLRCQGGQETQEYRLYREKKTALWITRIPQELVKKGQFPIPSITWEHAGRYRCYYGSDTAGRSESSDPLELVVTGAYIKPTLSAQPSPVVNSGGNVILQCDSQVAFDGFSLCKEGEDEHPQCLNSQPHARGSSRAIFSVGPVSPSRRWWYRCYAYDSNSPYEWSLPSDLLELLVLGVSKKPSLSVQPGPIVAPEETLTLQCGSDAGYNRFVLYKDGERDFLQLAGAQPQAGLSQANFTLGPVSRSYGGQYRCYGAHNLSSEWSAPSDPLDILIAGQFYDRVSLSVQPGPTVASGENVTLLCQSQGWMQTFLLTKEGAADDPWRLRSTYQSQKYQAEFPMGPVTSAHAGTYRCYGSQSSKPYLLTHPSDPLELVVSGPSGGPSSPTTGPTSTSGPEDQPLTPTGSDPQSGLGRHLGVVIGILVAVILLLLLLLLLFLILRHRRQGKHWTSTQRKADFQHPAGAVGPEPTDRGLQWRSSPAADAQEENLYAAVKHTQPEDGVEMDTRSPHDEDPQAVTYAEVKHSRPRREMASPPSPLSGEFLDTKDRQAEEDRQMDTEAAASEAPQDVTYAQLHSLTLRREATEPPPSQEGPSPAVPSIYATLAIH
T9 sequence (Q8N6C8 24-439 limits assumed): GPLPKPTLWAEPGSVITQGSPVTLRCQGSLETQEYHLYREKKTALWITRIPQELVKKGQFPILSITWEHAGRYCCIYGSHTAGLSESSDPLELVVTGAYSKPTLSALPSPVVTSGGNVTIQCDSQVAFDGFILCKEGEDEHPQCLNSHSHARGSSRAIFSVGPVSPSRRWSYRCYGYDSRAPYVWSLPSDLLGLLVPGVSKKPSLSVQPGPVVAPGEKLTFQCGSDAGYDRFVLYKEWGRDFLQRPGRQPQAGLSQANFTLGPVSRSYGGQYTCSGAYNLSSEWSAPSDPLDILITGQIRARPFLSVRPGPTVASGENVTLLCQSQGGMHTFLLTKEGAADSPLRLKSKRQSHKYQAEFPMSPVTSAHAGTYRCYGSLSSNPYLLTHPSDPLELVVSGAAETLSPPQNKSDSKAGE
T5 sequence (Q6PI73 24-481 limits assumed): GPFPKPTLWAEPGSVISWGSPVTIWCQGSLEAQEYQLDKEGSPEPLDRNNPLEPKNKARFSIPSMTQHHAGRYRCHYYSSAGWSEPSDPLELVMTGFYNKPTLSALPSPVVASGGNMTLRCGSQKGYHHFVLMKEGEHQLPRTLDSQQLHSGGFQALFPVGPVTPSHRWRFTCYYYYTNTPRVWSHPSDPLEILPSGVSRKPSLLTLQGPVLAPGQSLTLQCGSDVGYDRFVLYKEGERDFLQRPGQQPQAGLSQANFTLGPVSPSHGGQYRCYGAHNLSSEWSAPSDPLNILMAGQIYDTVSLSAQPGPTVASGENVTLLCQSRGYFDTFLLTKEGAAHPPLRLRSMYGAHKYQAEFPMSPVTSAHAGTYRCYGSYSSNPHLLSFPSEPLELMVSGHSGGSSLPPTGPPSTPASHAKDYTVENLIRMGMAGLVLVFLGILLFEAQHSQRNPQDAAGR
T2 sequence (A6NI73 42-299 limits assumed): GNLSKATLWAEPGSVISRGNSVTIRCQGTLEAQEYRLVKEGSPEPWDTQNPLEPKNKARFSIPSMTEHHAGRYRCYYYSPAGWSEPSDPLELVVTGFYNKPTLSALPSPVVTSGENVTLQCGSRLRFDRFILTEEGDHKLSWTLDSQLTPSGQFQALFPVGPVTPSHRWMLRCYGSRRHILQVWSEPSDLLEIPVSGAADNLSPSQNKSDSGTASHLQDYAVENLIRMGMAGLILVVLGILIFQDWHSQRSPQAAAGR
T6 sequence (Q8N149 24-483 S135L limits assumed): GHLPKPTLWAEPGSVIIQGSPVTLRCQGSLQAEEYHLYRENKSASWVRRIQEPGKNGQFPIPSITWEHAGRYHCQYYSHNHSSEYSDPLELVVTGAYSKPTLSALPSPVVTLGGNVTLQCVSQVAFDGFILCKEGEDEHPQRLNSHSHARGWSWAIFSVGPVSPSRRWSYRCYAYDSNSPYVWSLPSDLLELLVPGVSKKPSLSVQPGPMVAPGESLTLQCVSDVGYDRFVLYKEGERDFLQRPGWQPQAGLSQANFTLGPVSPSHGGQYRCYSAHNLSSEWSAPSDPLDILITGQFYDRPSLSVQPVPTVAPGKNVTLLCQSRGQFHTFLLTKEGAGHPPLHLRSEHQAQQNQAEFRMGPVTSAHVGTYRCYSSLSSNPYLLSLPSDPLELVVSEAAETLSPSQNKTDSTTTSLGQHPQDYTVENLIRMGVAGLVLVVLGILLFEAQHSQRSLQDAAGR
T1 sequence (Q8N423 other isoform, or with tags, fused parts or gaps limits assumed): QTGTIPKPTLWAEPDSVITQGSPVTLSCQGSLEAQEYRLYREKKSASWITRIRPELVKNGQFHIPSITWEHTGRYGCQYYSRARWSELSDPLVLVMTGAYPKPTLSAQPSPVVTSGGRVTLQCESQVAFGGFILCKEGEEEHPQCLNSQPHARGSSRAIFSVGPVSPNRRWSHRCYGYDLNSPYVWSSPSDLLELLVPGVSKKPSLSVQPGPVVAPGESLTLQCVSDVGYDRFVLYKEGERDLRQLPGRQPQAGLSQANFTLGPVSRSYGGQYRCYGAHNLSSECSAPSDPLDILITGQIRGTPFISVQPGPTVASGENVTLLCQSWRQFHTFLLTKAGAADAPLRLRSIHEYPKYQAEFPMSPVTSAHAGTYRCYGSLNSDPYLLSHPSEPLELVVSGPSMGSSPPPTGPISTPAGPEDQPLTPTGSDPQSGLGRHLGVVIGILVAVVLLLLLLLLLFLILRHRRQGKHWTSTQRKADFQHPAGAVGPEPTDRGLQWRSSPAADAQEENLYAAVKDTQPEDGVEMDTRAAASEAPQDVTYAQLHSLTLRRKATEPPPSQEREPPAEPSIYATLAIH
Sequence of human LILRB2-His (Q8N423 other isoform, or with tags, fused parts or gaps): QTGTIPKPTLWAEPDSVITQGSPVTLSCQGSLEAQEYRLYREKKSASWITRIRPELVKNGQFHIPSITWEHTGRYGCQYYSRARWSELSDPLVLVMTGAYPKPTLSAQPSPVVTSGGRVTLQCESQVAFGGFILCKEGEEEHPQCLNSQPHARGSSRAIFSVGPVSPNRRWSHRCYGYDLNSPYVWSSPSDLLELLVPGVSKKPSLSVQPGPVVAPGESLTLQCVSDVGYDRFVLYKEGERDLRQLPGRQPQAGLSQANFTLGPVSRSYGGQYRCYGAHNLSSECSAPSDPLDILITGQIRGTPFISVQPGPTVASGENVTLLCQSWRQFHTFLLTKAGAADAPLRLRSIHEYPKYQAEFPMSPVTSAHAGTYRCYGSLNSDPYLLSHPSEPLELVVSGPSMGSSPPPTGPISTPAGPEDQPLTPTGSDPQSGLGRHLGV
T7 sequence (P59901 other isoform, or with tags, fused parts or gaps limits assumed): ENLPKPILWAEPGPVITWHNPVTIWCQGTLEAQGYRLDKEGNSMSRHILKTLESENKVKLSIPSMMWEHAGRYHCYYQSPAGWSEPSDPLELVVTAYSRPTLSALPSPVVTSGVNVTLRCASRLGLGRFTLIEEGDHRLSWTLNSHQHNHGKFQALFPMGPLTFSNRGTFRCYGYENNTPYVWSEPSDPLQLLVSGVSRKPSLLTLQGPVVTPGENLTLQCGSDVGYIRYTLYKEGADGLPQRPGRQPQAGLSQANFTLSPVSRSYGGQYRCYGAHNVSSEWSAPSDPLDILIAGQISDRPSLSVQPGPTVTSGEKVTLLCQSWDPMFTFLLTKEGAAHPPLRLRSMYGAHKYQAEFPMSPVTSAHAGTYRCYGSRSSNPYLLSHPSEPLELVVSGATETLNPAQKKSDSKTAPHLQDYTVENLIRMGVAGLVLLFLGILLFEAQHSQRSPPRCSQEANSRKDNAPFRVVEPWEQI
T11 sequence (O75023 24-590 P542R limits assumed): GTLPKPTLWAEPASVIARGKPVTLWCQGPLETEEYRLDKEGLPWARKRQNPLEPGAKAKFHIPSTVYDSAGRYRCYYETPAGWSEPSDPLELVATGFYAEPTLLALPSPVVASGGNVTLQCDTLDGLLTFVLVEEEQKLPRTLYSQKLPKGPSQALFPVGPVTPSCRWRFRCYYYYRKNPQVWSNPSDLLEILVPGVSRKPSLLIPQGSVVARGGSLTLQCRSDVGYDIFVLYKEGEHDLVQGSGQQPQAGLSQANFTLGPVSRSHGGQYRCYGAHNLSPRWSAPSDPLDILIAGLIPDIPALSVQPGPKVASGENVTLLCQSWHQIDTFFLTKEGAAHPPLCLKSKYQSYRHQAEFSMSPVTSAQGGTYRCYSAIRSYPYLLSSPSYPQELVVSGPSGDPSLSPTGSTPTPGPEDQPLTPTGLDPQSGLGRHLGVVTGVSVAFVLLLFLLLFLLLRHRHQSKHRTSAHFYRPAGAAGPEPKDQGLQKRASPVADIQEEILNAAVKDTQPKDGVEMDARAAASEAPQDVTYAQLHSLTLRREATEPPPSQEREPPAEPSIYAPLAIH

Binder	EC50 [1]	Kd [3]	koff [3]	kon [3]	EC50 [4]	EC50, IL-6 production by LPS-stimulated HMDMs [5]	EC50, TNFa production by LPS-stimulated HMDMs [5]	IC50, CCL2 production by LPS-stimulated HMDMs [5]	IC50, IL-10 production by LPS-stimulated HMDMs [5]	binding (fold over iso) [6]	binding (fold over iso) [7]	binding result [7]	binding (fold over iso) [8]	binding result [8]	binding (fold over iso) [9]	binding result [9]	binding (fold over iso) [10]	binding result [10]	binding (fold over iso) [11]	binding result [11]	also measured
J-19.h1 (antibody, human IgG4 S228P, kappa, V domains shown, Humanized, human IgG4 backbone) VH: QITLKESGPTLVKPTQTLTLTCTFSGFSLNTYAMGVSWIRQPPGKALEWLASIWWNGNKYNNPSLKSRLTVTKDTSKNQVVLTMTNMDPVDTATYYCAHSRIIRFTDYVMDAWGQGTLVTVSS VL: DIQMTQSPSSLSTSVGDRVTITCRASEDIYNDLAWYQQKPGKAPKLLIYNANSLHTGVASRFSGSGSGTDFTFTISSLQPEDVATYFCQQYYDYPLTFGQGTKLEIKR	0.032 nM	2.73 nM	0.00107 s⁻¹	391000 M⁻¹ s⁻¹	0.083 nM	0.085 nM	0.076 nM	0.005 nM	0.45 nM	73.2 fold over iso	0.95 fold over iso	no binding	1 fold over iso	no binding	0.98 fold over iso	no binding	0.88 fold over iso	no binding	0.95 fold over iso	no binding	binding (fold over iso) [2]: 1.34 fold over iso; binding result [2]: no binding; binding (fold over iso) [12]: 0.79 fold over iso; binding result [12]: no binding; binding (fold over iso) [13]: 0.97 fold over iso; binding result [13]: no binding; binding (fold over iso) [14]: 1.22 fold over iso; binding result [14]: no binding; EC50 [15]: 0.162 nM; binding (fold over iso) [16]: 1.01 fold over iso; binding result [16]: no binding
J-19.h3 (antibody, human IgG4 S228P, kappa, V domains shown, Humanized, human IgG4 backbone) VH: QVTLKESGPSLVKPTQTLTLTCTFSGFSLNTYAMGVSWIRQPPGKALEWLASIWWNGNKYNNPSLKSRLTITKDTSKNQVVLKVTNMDPADTATYYCAHSRIIRFTDYVMDAWGQGTTVTVSS VL: DIVMTQSPSSLSASVGDTVTITCRASEDIYNDLAWYQQKPGKAPQLLLYNANSLHTGVPSRFSGSGSGTDYTLTISTLQPEDFATYYCQQYYDYPLTFGPGTKVHIKR	0.0325 nM	1.96 nM	0.00101 s⁻¹	518000 M⁻¹ s⁻¹	0.103 nM	0.083 nM	0.087 nM	5.9 nM	0.27 nM	79.4 fold over iso	1 fold over iso	no binding	0.97 fold over iso	no binding	1.03 fold over iso	no binding	0.83 fold over iso	no binding	0.99 fold over iso	no binding	binding (fold over iso) [2]: 1.22 fold over iso; binding result [2]: no binding; binding (fold over iso) [12]: 0.84 fold over iso; binding result [12]: no binding; binding (fold over iso) [13]: 0.92 fold over iso; binding result [13]: no binding; binding (fold over iso) [14]: 1.16 fold over iso; binding result [14]: no binding; EC50 [15]: 0.113 nM; binding (fold over iso) [16]: 0.95 fold over iso; binding result [16]: no binding
J-19.h4 (antibody, human IgG4 S228P, kappa, V domains shown, Humanized, human IgG4 backbone) VH: QVTLKESGPALVKPTHTLTLTCTFSGFSLNTYAMGVSWIRQPPGKALEWLASIWWNGNKYNNPSLKSRLTISKDTSKNQVVLTMTNMDPEDTATFYCAHSRIIRFTDYVMDAWGRGTTVTVSS VL: DIVMTQSPSSLSASVGDTVTITCRASEDIYNDLAWYQQKPGKAPQLLLYNANSLHTGVPSRFSGSGSGTDYTLTISTLQPEDFATYYCQQYYDYPLTFGPGTKVHIKR	0.00175 nM	2.33 nM	0.0012 s⁻¹	513000 M⁻¹ s⁻¹	0.106 nM	0.091 nM	0.084 nM	0.01 nM	0.19 nM	76.5 fold over iso	0.99 fold over iso	no binding	1.24 fold over iso	no binding	1.27 fold over iso	no binding	0.96 fold over iso	no binding	1.09 fold over iso	no binding	binding (fold over iso) [12]: 0.87 fold over iso; binding result [12]: no binding; binding (fold over iso) [13]: 0.99 fold over iso; binding result [13]: no binding; EC50 [15]: 0.131 nM; binding (fold over iso) [16]: 1.27 fold over iso; binding result [16]: no binding

— patent US20200339690A1 (JOUNCE THERAPEUTICS, published 2020)
